The source of these data is publication PMC4134136 (PLoS ONE, 2014).

This data set concerns the molecule itself. Kind of data set: crystal structure; NOD1 CARD and Ub mixed 1:1, 1 mM each, in GF buffer (25 mM sodium phosphate, 25 mM NaCl, 5 mM DTT, pH 7.0); hanging drop, 100 mM PCB, 25% PEG 1500, pH 9.0 (crystals formed at pH ~8.6); 2.90 Å.

B1: Caspase Recruitment Domain (CARD) of human NOD1, residues serine 16 to glycine 108 (domain or fragment)
chain: SHPHIQLLKSNRELLVTHIRNTQCLVDNLLKNDYFSAEDAEIVCACPTQPDKVRKILDLVQSKGEEVSEFFLYLLQQLADAYVDLRPWLLEIGLE
modifications: dimethyl-arsenic adduct on the sulfhydryl of Cys59 (formed in the crystallization buffer with cacodylate and DTT)
notes: NOD1, human, CARD, residues serine 16 to glycine 108; leucine and glutamic acid inserted between glycine 108 and the 6xHis-tag, from an XhoI restriction site; Purified as a monomer (gel filtration removed residual dimer); in the crystal a homodimer with swapped sixth helices; also called NOD1 CARD; CARD A
Regarding B1, the binding result was “binds”.
